Data: ChEMBL document CHEMBL1136774, “Pharmacophore and quantitative structure-activity relationship modeling: complementary approaches for the rationalization and prediction of UDP-glucuronosyltransferase 1A4 substrate selectivity” (J Med Chem, 2003)

Tests used:
[1] = biological target: UGT1A4 (UDP-glucuronosyltransferase 1A4) (Homo sapiens, UniProt P22310); assay: (§1) Binding affinity against human UDP Glucuronosyltransferase 1A4 (UGT1A4); conditions: read-out: Km,app
[2] = substrate: C[C@@H]1CC[C@@]2(OC1)O[C@H]1C[C@H]3[C@@H]4CC=C5C[C@@H](O)CC[C@]5(C)[C@H]4CC[C@]3(C)[C@H]1[C@@H]2C; assay: as §1
[3] = substrate: Nc1ccc(-c2ccc(N)cc2)cc1; assay: as §1
[4] = substrate: CN1CCC(=C2c3ccccc3C=Cc3ccccc32)CC1; assay: as §1
[5] = substrate: CN1CCN(C2=Nc3ccccc3Oc3ccc(Cl)cc32)CC1; assay: as §1
[6] = substrate: C[C@@H]1CC[C@@]2(OC1)O[C@H]1C[C@H]3[C@@H]4CC[C@H]5C[C@@H](O)CC[C@]5(C)[C@H]4CC[C@]3(C)[C@H]1[C@@H]2C; assay: as §1
[7] = substrate: CN(C)CCC=C1c2ccccc2CCc2ccccc21; assay: as §1
[8] = substrate: CN1CCC(=C2c3ccccc3CC(=O)c3sccc32)CC1; assay: as §1
[9] = substrate: CC1(C)[C@H]2CC[C@]1(C)[C@H](O)C2; assay: as §1
[10] = substrate: c1ccc(Nc2ccccc2)cc1; assay: as §1
[11] = substrate: Cc1ccc(C(C)C)cc1O; assay: as §1
[12] = substrate: C=CCc1ccc(O)c(OC)c1; assay: as §1
[13] = substrate: Nc1ccccc1-c1ccccc1; assay: as §1
[14] = substrate: [H][C@@]12CC[C@]3([H])[C@]([H])(CC[C@@]4(C)[C@@]3([H])CC[C@]4([H])[C@H](C)O)[C@@]1(C)CC[C@H](O)C2; assay: as §1
[15] = substrate: CC1CC[C@H](C(C)C)[C@@H](O)C1; assay: as §1
[16] = substrate: CCOC(=O)Nc1ccc(NCc2ccc(F)cc2)cc1N; assay: as §1
[17] = substrate: CN1CCN(C2=Nc3cc(Cl)ccc3Nc3ccccc32)CC1; assay: as §1
[18] = substrate: Clc1ccc2c(c1)N=C(N1CCNCC1)c1ccccc1N2; assay: as §1
[19] = substrate: [H][C@@]12CC[C@]3([H])[C@]([H])(CC[C@]4(C)C(C)(O)CC[C@@]34[H])[C@@]1(C)CCC(O)C2; assay: as §1
[20] = substrate: O=c1c(-c2ccc(O)cc2)coc2cc(O)ccc12; assay: as §1
[21] = substrate: Nc1ccc(-c2ccccc2)cc1; assay: as §1
[22] = substrate: O=[N+]([O-])c1ccc(O)cc1; assay: as §1
[23] = substrate: CN(C)CCCN1c2ccccc2CCc2ccccc21; assay: as §1
[24] = substrate: C[C@@H]1CC[C@@]2(OC1)O[C@H]1C[C@H]3[C@@H]4CC[C@@]5(C)C[C@@H](O)CC[C@]5(C)[C@H]4CC(=O)[C@]3(C)[C@H]1[C@@H]2C; assay: as §1

Work on `CN(C)CCCN1c2ccccc2Sc2ccc(Cl)cc21` [CHLORPROMAZINE] yielded a Km [1] of 93 µM.

B1: UDP-glucuronosyltransferase 1A4 (Homo sapiens) (protein)
chain: MARGLQVPLPRLATGLLLLLSVQPWAESGKVLVVPTDGSPWLSMREALRELHARGHQAVVLTPEVNMHIKEEKFFTLTAYAVPWTQKEFDRVTLGYTQGFFETEHLLKRYSRSMAIMNNVSLALHRCCVELLHNEALIRHLNATSFDVVLTDPVNLCGAVLAKYLSIPAVFFWRYIPCDLDFKGTQCPNPSSYIPKLLTTNSDHMTFLQRVKNMLYPLALSYICHTFSAPYASLASELFQREVSVVDLVSYASVWLFRGDFVMDYPRPIMPNMVFIGGINCANGKPLSQEFEAYINASGEHGIVVFSLGSMVSEIPEKKAMAIADALGKIPQTVLWRYTGTRPSNLANNTILVKWLPQNDLLGHPMTRAFITHAGSHGVYESICNGVPMVMMPLFGDQMDNAKRMETKGAGVTLNVLEMTSEDLENALKAVINDKSYKENIMRLSSLHKDRPVEPLDLAVFWVEFVMRHKGAPHLRPAAHDLTWYQYHSLDVIGFLLAVVLTVAFITFKCCAYGYRKCLGKKGRVKKAHKSKTH
Work on B1 yielded a Km [2] of 13 µM, a Km [3] of 460 µM and a Km [4] of 150 µM. The Km [5] was 27 µM, the Km [6] was 7 µM and the Km [7] was 60 µM. The Km [8] was 70 µM, the Km [9] was 1100 µM and the Km [10] was 240 µM. It also gave a Km [11] of 1500 µM, a Km [12] of 1570 µM and a Km [13] of 47 µM. For the same molecule, the Km [14] was 7.3 µM, the Km [15] was 470 µM and the Km [16] was 322 µM. The Km [17] was 62 µM, the Km [18] was 56 µM and the Km [19] was 16 µM. For the same molecule, the Km [20] was 400 µM, the Km [21] was 66 µM and the Km [22] was 11600 µM. The Km [23] was 310 µM and the Km [24] was 18 µM.
